Substrate in data set [1]: O=C(O)C(=O)/C=C1/C=C[C@H](O)CC1
The data set is described as follows: purified protein. The data set is classed as biochemical, Bacillus subtilis. The conditions noted are these: 2 mM NADH (saturating), 50 mM potassium phosphate pH 8.0, 5 µM BacG.

Substrate in data set [2]: O=C(O)C(=O)/C=C1\C=C[C@H](O)CC1
The experiment in a line: purified protein. In kind it is biochemical, Bacillus subtilis. The conditions noted are these: 2 mM NADH (saturating), 50 mM potassium phosphate pH 8.0, 1 µM BacG.

B1: BacG (Bacillus subtilis subsp. subtilis str. 168) (protein)
chain: MSKRTAFVMGASQGIGKAIALKLADQHFSLVINSRNLDNIESVKEDILAKHPEASVIVLAGDMSDQHTRAGIFQKIESQCGRLDVLINNIPGGAPDTFDNCNIEDMTATFTQKTVAYIDAIKRASSLMKQNEFGRIINIVGNLWKEPGANMFTNSMMNAALINASKNISIQLAPHNITVNCLNPGFIATDRYHQFVENVMKKNSISKQKAEEQIASGIPMKRVGSAEETAALAAFLASEEASYITGQQISADGGSMKSI
The kcat is the number of substrate molecules converted per active site and unit of time at saturation. In the case of B1, the turnover number (kcat) in “purified protein [1]” came out at 0.553 s⁻¹; in the data set “purified protein [2]” it was 1.19 s⁻¹.
